Target: T1, RALGAPB (human, UniProt Q86X10 1-1494, limits assumed)
T1 sequence (looked up): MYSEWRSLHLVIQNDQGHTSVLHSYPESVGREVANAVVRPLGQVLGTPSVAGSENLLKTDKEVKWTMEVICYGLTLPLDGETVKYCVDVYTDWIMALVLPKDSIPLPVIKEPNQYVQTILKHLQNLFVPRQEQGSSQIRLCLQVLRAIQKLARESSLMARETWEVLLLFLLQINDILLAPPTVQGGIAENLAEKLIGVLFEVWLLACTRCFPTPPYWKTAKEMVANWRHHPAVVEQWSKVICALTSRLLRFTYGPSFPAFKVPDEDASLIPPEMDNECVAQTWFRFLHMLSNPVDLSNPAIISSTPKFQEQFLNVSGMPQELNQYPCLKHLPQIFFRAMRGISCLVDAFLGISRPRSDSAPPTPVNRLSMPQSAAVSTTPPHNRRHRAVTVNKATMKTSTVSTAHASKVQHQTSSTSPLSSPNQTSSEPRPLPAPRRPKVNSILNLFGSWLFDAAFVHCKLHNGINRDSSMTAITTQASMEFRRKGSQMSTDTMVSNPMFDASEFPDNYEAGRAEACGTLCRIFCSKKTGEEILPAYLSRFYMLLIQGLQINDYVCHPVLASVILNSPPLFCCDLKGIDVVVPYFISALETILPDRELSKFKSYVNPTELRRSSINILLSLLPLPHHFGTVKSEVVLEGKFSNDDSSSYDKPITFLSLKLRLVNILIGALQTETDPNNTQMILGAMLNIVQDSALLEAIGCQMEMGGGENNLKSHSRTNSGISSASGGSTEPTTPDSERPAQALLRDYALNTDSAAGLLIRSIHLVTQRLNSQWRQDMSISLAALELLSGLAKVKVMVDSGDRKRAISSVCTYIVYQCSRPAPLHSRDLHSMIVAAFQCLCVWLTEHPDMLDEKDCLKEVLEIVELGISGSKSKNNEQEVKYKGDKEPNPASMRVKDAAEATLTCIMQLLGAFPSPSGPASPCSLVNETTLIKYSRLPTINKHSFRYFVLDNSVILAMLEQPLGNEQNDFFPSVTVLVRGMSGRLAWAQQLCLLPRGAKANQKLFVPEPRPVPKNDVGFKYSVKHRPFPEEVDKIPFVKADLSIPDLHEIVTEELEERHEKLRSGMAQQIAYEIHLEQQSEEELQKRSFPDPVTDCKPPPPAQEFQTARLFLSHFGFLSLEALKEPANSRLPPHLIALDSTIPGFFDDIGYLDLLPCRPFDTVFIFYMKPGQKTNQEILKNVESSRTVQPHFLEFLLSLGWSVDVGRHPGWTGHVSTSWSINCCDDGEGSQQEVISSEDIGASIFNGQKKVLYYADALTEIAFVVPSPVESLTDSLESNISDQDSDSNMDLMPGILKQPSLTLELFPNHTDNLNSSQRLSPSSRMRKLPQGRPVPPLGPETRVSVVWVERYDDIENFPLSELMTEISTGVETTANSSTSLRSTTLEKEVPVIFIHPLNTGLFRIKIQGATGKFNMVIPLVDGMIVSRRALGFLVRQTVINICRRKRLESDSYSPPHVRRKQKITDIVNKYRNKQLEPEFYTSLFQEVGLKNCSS
Experiment: IP/MS, LZTR1 wild type-FLAG, U87
How it was run: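 Gel slices were reduced with 5 mM DTT, alkylated with 11 mM IAA and digested overnight at 37° C. with trypsin. Peptides were analysed on an Orbitrap Fusion Tribrid by LC-MS/MS.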

binding result: binds
B1: LZTR1-FLAG (other, human, UniProt Q8N653 1-840, looked up)
chain: MAGPGSTGGQIGAAALAGGARSKVAPSVDFDHSCSDSVEYLTLNFGPFETVHRWRRLPPCDEFVGARRSKHTVVAYKDAIYVFGGDNGKTMLNDLLRFDVKDCSWCRAFTTGTPPAPRYHHSAVVYGSSMFVFGGYTGDIYSNSNLKNKNDLFEYKFATGQWTEWKIEGRLPVARSAHGATVYSDKLWIFAGYDGNARLNDMWTIGLQDRELTCWEEVAQSGEIPPSCCNFPVAVCRDKMFVFSGQSGAKITNNLFQFEFKDKTWTRIPTEHLLRGSPPPPQRRYGHTMVAFDRHLYVFGGAADNTLPNELHCYDVDFQTWEVVQPSSDSEVGGAEVPERACASEEVPTLTYEERVGFKKSRDVFGLDFGTTSAKQPTQPASELPSGRLFHAAAVISDAMYIFGGTVDNNIRSGEMYRFQFSCYPKCTLHEDYGRLWESRQFCDVEFVLGEKEECVQGHVAIVTARSRWLRRKITQARERLAQKLEQEAAPVPREAPGVAAGGARPPLLHVAIREAEARPFEVLMQFLYTDKIKYPRKGHVEDVLLIMDVYKLALSFQLCRLEQLCRQYIEASVDLQNVLVVCESAARLQLSQLKEHCLNFVVKESHFNQVIMMKEFERLSSPLIVEIVRRKQQPPPRTPLDQPVDIGTSLIQDMKAYLEGAGAEFCDITLLLDGHPRPAHKAILAARSSYFEAMFRSFMPEDGQVNISIGEMVPSRQAFESMLRYIYYGEVNMPPEDSLYLFAAPYYYGFYNNRLQAYCKQNLEMNVTVQNVLQILEAADKTQALDMKRHCLHIIVHQFTKVSKLPTLRSLSQQLLLDIIDSLASHISDKQCAELGADI
notes: Expressed in HEK 293T, HeLa or U87 cells; used as cell lysate; also called LZTR1 wild type-FLAG; LZTR1 WT; not shown: FLAG tag at the C-terminus

— US20250262210A1 (TRUSTEES OF COLUMBIA UNIVERSITY IN THE CITY OF NEW YORK, published 2025)
